Results as given in patent US20200407436A1 (published 2020).
Residue numbers refer to the chain shown, from its start. Where “and” joins values, the source holds several entries; their conditions need not be identical. Identical values can stand only once.

How the values were obtained:
[1] = molecular target: T1, mature human TGF-beta 2 (human, UniProt P61812 303-414); test: SPR Biacore T200, TGF-beta amine-coupled (~150 RU), Fab as analyte; heterogeneous ligand fit, component 1 (KD1; believed occluded, weak interaction)
T1 construct: also called TGFb2; TGFB2
T1 sequence: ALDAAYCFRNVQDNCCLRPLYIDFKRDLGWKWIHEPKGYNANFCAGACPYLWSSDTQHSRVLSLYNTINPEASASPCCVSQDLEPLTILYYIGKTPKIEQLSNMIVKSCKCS
Procedure: (§1) Background subtraction binding curves were analysed using the Biacore™ T200 evaluation software (version 1.0) following standard procedures.

[2] = molecular target: T2, mature human TGF-beta 1 (human, UniProt P01137 279-390); test: as above
T2 construct: Bought recombinant protein (Peprotech); also called TGFb1; TGFB1
Procedure: as §1

[3] = molecular target: T3, mature human TGF-beta 3 (human, UniProt P10600 301-412); test: as above
T3 construct: also called TGFb3; TGFB3
T3 sequence: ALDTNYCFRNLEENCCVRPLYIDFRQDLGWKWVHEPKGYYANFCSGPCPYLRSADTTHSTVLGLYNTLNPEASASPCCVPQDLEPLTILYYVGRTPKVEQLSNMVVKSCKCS
Procedure: as §1

[4] = molecular target: T1, mature human TGF-beta 2; test: cell-based or functional assay
[5] = molecular target: T2, mature human TGF-beta 1; test: cell-based or functional assay
[6] = molecular target: T3, mature human TGF-beta 3; test: cell-based or functional assay
[7] = molecular target: T1, mature human TGF-beta 2; test: SPR Biacore T200, TGF-beta amine-coupled (~150 RU), Fab as analyte; heterogeneous ligand fit, component 2 (KD2; believed non-occluded, representative)
Procedure: as §1

[8] = molecular target: T2, mature human TGF-beta 1; test: as above
Procedure: as §1

[9] = molecular target: T3, mature human TGF-beta 3; test: as above
Procedure: as §1

[10] = molecular target: T1, mature human TGF-beta 2; test: SPR Biacore T200, TGF-beta amine-coupled (~150 RU), Fab as analyte; heterogeneous ligand fit, component 1 (Ka1; believed occluded, weak interaction)
Procedure: as §1

[11] = molecular target: T2, mature human TGF-beta 1; test: as above
Procedure: as §1

[12] = molecular target: T3, mature human TGF-beta 3; test: as above
Procedure: as §1

[13] = molecular target: T1, mature human TGF-beta 2; test: SPR Biacore T200, TGF-beta amine-coupled (~150 RU), Fab as analyte; heterogeneous ligand fit, component 2 (kd2; believed non-occluded, representative)
Procedure: as §1

[14] = molecular target: T2, mature human TGF-beta 1; test: as above
Procedure: as §1

[15] = molecular target: T3, mature human TGF-beta 3; test: as above
Procedure: as §1

[16] = molecular target: T1, mature human TGF-beta 2; test: SPR Biacore T200, TGF-beta amine-coupled (~150 RU), Fab as analyte; heterogeneous ligand fit, component 2 (ka2; believed non-occluded, representative)
Procedure: as §1

[17] = molecular target: T2, mature human TGF-beta 1; test: as above
Procedure: as §1

[18] = molecular target: T3, mature human TGF-beta 3; test: as above
Procedure: as §1

[19] = molecular target: TGF-beta produced and activated by BxPC3 cells; test: cell-based or functional assay
[20] = molecular target: T1, mature human TGF-beta 2; test: SPR Biacore T200, TGF-beta amine-coupled (~150 RU), Fab as analyte; heterogeneous ligand fit, component 1 (Kd1; believed occluded, weak interaction)
Procedure: as §1

[21] = molecular target: T2, mature human TGF-beta 1; test: as above
Procedure: as §1

[22] = molecular target: T3, mature human TGF-beta 3; test: as above
Procedure: as §1

[23] = molecular target: T1, mature human TGF-beta 2; test: X-ray crystal structure of the complex
[24] = molecular target: T1, mature human TGF-beta 2; test: cell-based or functional assay; remark: listed apart in the source
[25] = molecular target: T2, mature human TGF-beta 1; test: cell-based or functional assay; remark: listed apart in the source
[26] = molecular target: T3, mature human TGF-beta 3; test: cell-based or functional assay; remark: listed apart in the source
[27] = molecular target: TGF-beta produced and activated by BxPC3 cells; test: cell-based or functional assay; remark: listed apart in the source

T2 sequence (P01137 279-390 limits assumed): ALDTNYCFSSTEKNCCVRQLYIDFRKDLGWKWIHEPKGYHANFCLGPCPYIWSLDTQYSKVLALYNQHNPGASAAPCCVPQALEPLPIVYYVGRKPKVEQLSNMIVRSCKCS

B1: 4856 rabbit Fab (Fab, V domains shown)
VH: QSLEESGGRLVTPGTPLTLTCTASGFSLSSYDMSWVRQAPGKGLEWIGIIYGGSGSTWYASWAKGRFTMSKTSTTVDLKITSPTTEDMATYFCARGRDGGAGGSRNGYSLWGQGTLVTVSS
VL: AYDMTQTPASVEVAVGGTVTIKCQASESIYSGLAWYQQTPGQRPKLLIYAASDLASGVPSRFKGSGSGTEYTLTISGVECADAATYYCQQTWTDGGIDNPFGGGTEVVVKR
notes: Rabbit variable regions cloned into rabbit Fab no hinge (VH) and rabbit kappa (VL) vectors, expressed in Expi-293 cells; also called BSN.4856.rbFab
Work on B1 yielded a Kd [1] of 1.69 nM, a Kd [2] of 6.3 nM and a Kd [3] of 12.4 nM. The “Geomean IC50, HEK-Blue TGF-beta reporter gene assay” value [4] was 0.3 unit unclear (column head says nM, but r10 gives the nM value in brackets) and 0.01 nM, the “Geomean IC50, HEK-Blue TGF-beta reporter gene assay” value [5] was 1.77 unit unclear (column head says nM, but r10 gives the nM value in brackets) and 0.04 nM and the “Geomean IC50, HEK-Blue TGF-beta reporter gene assay” value [6] was 24.5 unit unclear (column head says nM, but r10 gives the nM value in brackets) and 0.54 nM. The Kd [7] was 0.606 nM, the Kd [8] was 0.112 nM and the Kd [9] was 1.65 nM. The kon [10] was 38700 M⁻¹ s⁻¹, the kon [11] was 50500 M⁻¹ s⁻¹ and the kon [12] was 63300 M⁻¹ s⁻¹. It also gave a koff [13] of 0.000383 s⁻¹, a koff [14] of 5.08e-05 s⁻¹ and a koff [15] of 0.00144 s⁻¹. It also gave a kon [16] of 632000 M⁻¹ s⁻¹, a kon [17] of 455000 M⁻¹ s⁻¹ and a kon [18] of 873000 M⁻¹ s⁻¹. For the same binder, the “Geomean IC50, BxPC3-HEK-Blue TGF-beta reporter gene co-culture assay” value [19] was 3.7 nM, the koff [20] was 6.55e-05 s⁻¹ and the koff [21] was 0.000318 s⁻¹. For the same binder, the koff [22] was 0.000782 s⁻¹.

B2: scFv 4856 (scFv)
scFv: EVQLVESGGGLVKPGGSLRLSCAASGFSLSSYDMSWVRQAPGKCLEWIGIIYGGSGSTWYASWAKGRFTISRDSAKNSVYLQMNSLRAEDTAVYYCARGRDAGAGGSRNGYSLWGQGTLVTVSSGGGGSGGGGSGGGGSGGGGSAYDMTQSPSTLSASVGDRVTITCQASESIYSGLAWYQQKPGKAPKLLIYAASDLASGVPSRFSGSGSGTEYTLTISSLQPDDFATYYCQQTWTDGGIDNPFGCGTKVEIKRTENLYFQ
B2: binds [23].

B3: humanised antibody 4856 Fab graft gL3gH23 (Fab, V domains shown)
VH: EVQLVESGGGLVKPGGSLRLSCAASGFSLSSYDMSWVRQAPGKGLEWIGIIYGGSGSTWYASWAKGRFTISRDSAKNSVYLQMNSLRAEDTAVYYCARGRDAGAGGSRNAYSLWGQGTLVTVSS
VL: AYDMTQSPSTLSASVGDRVTITCQASESIYSGLAWYQQKPGKAPKLLIYAASDLASGVPSRFSGSGSGTEYTLTISSLQPDDFATYYCQQTWTDGGIDNPFGGGTKVEIKR
With B3 the “Geometric mean IC50, HEK-Blue TGF-beta reporter gene assay” value [24] was 0.017 nM, the “Geometric mean IC50, HEK-Blue TGF-beta reporter gene assay” value [25] was 0.41 nM and the “Geometric mean IC50, HEK-Blue TGF-beta reporter gene assay” value [26] was 1.99 nM. For the same binder, the “Geometric mean IC50, BxPC3 and HEK-Blue TGF-beta reporter gene co-culture assay” value [27] was 9.1 nM.

B4: humanised antibody 4856 Fab graft gL3gH29 (Fab, V domains shown)
VH: B3 VH with N109D, A110G
VL: B3 VL
In the case of B4, the “Geometric mean IC50, HEK-Blue TGF-beta reporter gene assay” value [24] is reported as 0.016 nM, the “Geometric mean IC50, HEK-Blue TGF-beta reporter gene assay” value [25] is reported as 0.255 nM and the “Geometric mean IC50, HEK-Blue TGF-beta reporter gene assay” value [26] is reported as 1.95 nM. For the same binder, the “Geometric mean IC50, BxPC3 and HEK-Blue TGF-beta reporter gene co-culture assay” value [27] was 3.77 nM.

B5: humanised antibody 4856 Fab graft gL3gH20 (Fab, V domains shown)
VH: B3 VH with G49S, I70M, R72K, A110G
VL: B3 VL
In the case of B5, the “Geometric mean IC50, HEK-Blue TGF-beta reporter gene assay” value [24] is reported as 0.011 nM, the “Geometric mean IC50, HEK-Blue TGF-beta reporter gene assay” value [25] is reported as 0.038 nM and the “Geometric mean IC50, HEK-Blue TGF-beta reporter gene assay” value [26] is reported as 0.302 nM. For the same binder, the “Geometric mean IC50, BxPC3 and HEK-Blue TGF-beta reporter gene co-culture assay” value [27] was 4.63 nM.
